Test results taken from publication PMC12015307 (Nature Communications, 2025).

How the values were obtained:
[1] = biological target: His-SAMD9 (Homo sapiens, UniProt Q5K651 1-1589); experiment: EMSA
[2] = biological target: the molecule itself; experiment: native gel or EMSA

| Binder | binding result [1] | binding result [2] |
| --- | --- | --- |
| 15-bp dsDNA (dsDNA) DNA 1: GATAAGGACTCGTAT DNA 2: ATACGAGTCCTTATC | no binding | – |
| 80-nt ssDNA (ssDNA) DNA: CGCCTACATACCTCGCTCTGCTAATCCTGTTACCAGTGGCTGCTGCCAGTGGCGATAAGTCGTGTCTTACCGGGTTGGAC | no binding | – |
| 20-bp dsDNA (dsDNA) DNA 1: GATAAGGACTCGTATGTACC DNA 2: GGTACATACGAGTCCTTATC | no binding | – |
| His-SAMD9, recombinant full-length human SAMD9 (natural protein) MAKQLNLPENTDDWTKEDVNQWLESHKIDQKHREILTEQDVNGAVLKWLKKEHLVDMGITHGPAIQIEELFKELRKTAIEDSIQTSKMGKPSKNAPKDQTVSQKERRETSKQKQKGKENPDMANPSAMSTTAKGSKSLKVELIEDKIDYTKERQPSIDLTCVSYPFDEFSNPYRYKLDFSLQPETGPGNLIDPIHEFKAFTNTATATEEDVKMKFSNEVFRFASACMNSRTNGTIHFGVKDKPHGKIVGIKVTNDTKEALINHFNLMINKYFEDHQVQQAKKCIREPRFVEVLLPNSTLSDRFVIEVDIIPQFSECQYDYFQIKMQNYNNKIWEQSKKFSLFVRDGTSSKDITKNKVDFRAFKADFKTLAESRKAAEEKFRAKTNKKEREGPKLVKLLTGNQDLLDNSYYEQYILVTNKCHPDQTKHLDFLKEIKWFAVLEFDPESNINGVVKAYKESRVANLHFPSVYVEQKTTPNETISTLNLYHQPSWIFCNGRLDLDSEKYKPFDPSSWQRERASDVRKLISFLTHEDIMPRGKFLVVFLLLSSVDDPRDPLIETFCAFYQDLKGMENILCICVHPHIFQGWKDLLEARLIKHQDEISSQCISALSLEEINGTILKLKSVTQSSKRLLPSIGLSTVLLKKEEDIMTALEIICENECEGTLLEKDKNKFLEFKASKEEDFYRGGKVSWWNFYFSSESYSSPFVKRDKYERLEAMIQNCADSSKPTSTKIIHLYHHPGCGGTTLAMHILWELRKKFRCAVLKNKTVDFSEIGEQVTSLITYGAMNRQEYVPVLLLVDDFEEQDNVYLLQYSIQTAIAKKYIRYEKPLVIILNCMRSQNPEKSARIPDSIAVIQQLSPKEQRAFELKLKEIKEQHKNFEDFYSFMIMKTNFNKEYIENVVRNILKGQNIFTKEAKLFSFLALLNSYVPDTTISLSQCEKFLGIGNKKAFWGTEKFEDKMGTYSTILIKTEVIECGNYCGVRIIHSLIAEFSLEELKKSYHLNKSQIMLDMLTENLFFDTGMGKSKFLQDMHTLLLTRHRDEHEGETGNWFSPFIEALHKDEGNEAVEAVLLESIHRFNPNAFICQALARHFYIKKKDFGNALNWAKQAKIIEPDNSYISDTLGQVYKSKIRWWIEENGGNGNISVDDLIALLDLAEHASSAFKESQQQSEDREYEVKERLYPKSKRRYDTYNIAGYQGEIEVGLYTIQILQLIPFFDNKNELSKRYMVNFVSGSSDIPGDPNNEYKLALKNYIPYLTKLKFSLKKSFDFFDEYFVLLKPRNNIKQNEEAKTRRKVAGYFKKYVDIFCLLEESQNNTGLGSKFSEPLQVERCRRNLVALKADKFSGLLEYLIKSQEDAISTMKCIVNEYTFLLEQCTVKIQSKEKLNFILANIILSCIQPTSRLVKPVEKLKDQLREVLQPIGLTYQFSEPYFLASLLFWPENQQLDQHSEQMKEYAQALKNSFKGQYKHMHRTKQPIAYFFLGKGKRLERLVHKGKIDQCFKKTPDINSLWQSGDVWKEEKVQELLLRLQGRAENNCLYIEYGINEKITIPITPAFLGQLRSGRSIEKVSFYLGFSIGGPLAYDIEIV | – | binds |
